Test results: patent publication US20240207421A1, “NERVE TARGETING PEPTIDES AND METHODS OF USE” (ALUME BIOSCIENCES, INC., priority 2020, published 2024)

What was measured:
Human Nidogen-2 = experiment: Phage display library screening (Example 2, Python script analysis), binding to Human Nidogen-2; conditions: combined unique sequence count, Python/R script analysis
Method: Phage display library screens were used to identify peptides that bind to target proteins (including specific laminin trimers) that are expressed in human nerves, as described in Table 3. These screens were also carried out to identify peptides that could bind selectively to nerves versus muscle. Such peptides could therefore be useful for systemic in-vivo labeling of nerves during fluorescence assisted surgery. Specifically, m 13 phage libraries expressing 7 or 12 random amino acid peptides, or a cyclic peptide CX7C, on the N-terminus of the minor coat protein pIII (New England Biolabs; NEB) were processed through multiple rounds of selection for binding to target proteins expressed in nerves, or to excised human nerves, nerve extracts, or muscle, as described further below.
For screening against the specified target proteins in Table 1, including LN211, LN411, LN421, and LN521, the phage library was processed by up to 4 binding and wash cycles. For selection, phage libraries were incubated for up to 24 hours at 4° C. in 96 well plates that had been coated with one of the target proteins. Plates were then washed with PBS and phage were eluted using 0.2M glycine pH 2.0. Phage supernatants where then neutralized with Tris pH 9.0 prior to plating on TGI bacteria and LB agar plates. Colonies were counted to determine titer followed by DNA preparation of pools of phage and NextGen sequencing. After rounds of selection, phage were pooled and amplified for iterative selection. Phage that were bound at each round were sequenced. NextGen sequencing of pools after 2, 3 and 4 rounds of selection was used to isolate candidate sequences that were analyzed further to identify those that specifically bound each unique target protein.
Python Script Analysis: For all NEB sequence datasets, a python script was used to translate, trim, and filter the peptide sequences. The script translated the nucleotide sequences, translating amber codons as glutamine in peptide sequences, and then trimmed the end sequences that come from the vector. Secondly, the script combined the unique counts of trimmed peptides with identical sequences. […] Another python script was used to group peptides from different assays according to protein target (Myelin Protein Zero, Myelin Proteolipid Protein, Myelin Basic Protein, and Nidogen-2) and also combine the unique sequence counts for each peptide. An R script was written to merge the peptide sequences from different data files and determine peptides specific for each protein target but absent from different protein binding datasets. Peptide sequences were ranked by unique sequence count.

Human Myelin PLP (human) [1] = target: Human Myelin PLP (human) (UniProt P60201); experiment: phage display R3, NGS count
Human Myelin PLP (human) [2] = target: Human Myelin PLP (human) (UniProt P60201); experiment: phage display, NGS count
Human MPZ (human) = Human MPZ (human) (UniProt P25189); experiment: phage display, NGS count
Human MPZ (human), sequence (P25189 30-153 limits assumed): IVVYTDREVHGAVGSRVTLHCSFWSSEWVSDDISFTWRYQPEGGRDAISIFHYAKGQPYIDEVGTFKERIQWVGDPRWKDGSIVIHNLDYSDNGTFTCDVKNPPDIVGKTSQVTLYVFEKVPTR

Human Myelin PLP (human), sequence (P60201 2-277 limits assumed): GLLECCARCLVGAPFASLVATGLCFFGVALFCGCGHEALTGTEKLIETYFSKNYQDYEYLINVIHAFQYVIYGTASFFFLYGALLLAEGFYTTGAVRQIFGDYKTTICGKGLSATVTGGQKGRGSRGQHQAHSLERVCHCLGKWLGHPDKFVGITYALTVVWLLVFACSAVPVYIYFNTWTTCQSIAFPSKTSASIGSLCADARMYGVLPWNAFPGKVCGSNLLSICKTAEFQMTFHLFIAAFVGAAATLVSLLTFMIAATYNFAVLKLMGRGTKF

| Count (Human MPZ (human)) | Substance | other results |
| --- | --- | --- |
| 42 | SGHGAFR (peptide) |  |
| 37 | THSTDLS (peptide) |  |
| 42 | TTLVVTA (peptide) |  |
| 43 | WMTNLDP (peptide) |  |
| 45 | TTWPNTA (peptide) |  |
| 39 | YEGERGA (peptide) |  |
| 37 | NPTSEGA (peptide) |  |
| 40 | KRNLWDI (peptide) |  |
| 38 | SAHSVVE (peptide) |  |
| 46 | SVAYVPV (peptide) |  |
| 41 | SETESYM (peptide) |  |
| 40 | DRYLLNQ (peptide) |  |
| 41 | HPLMVPS (peptide) |  |
| 40 | FPSYTIS (peptide) |  |
| 52 | GSWSSGF (peptide) |  |
| 46 | GPVVSGM (peptide) |  |
| 39 | AWTMRAS (peptide) |  |
| 39 | LVNPFPE (peptide) |  |
| 40 | GGSKVWG (peptide) |  |
| 37 | YAPWRVF (peptide) |  |
| 38 | KTPILAS (peptide) |  |
| 43 | LSPPRIM (peptide) |  |
| 46 | NMSHSNR (peptide) |  |

| Count (Human MPZ (human)) | Substance | other results |
| --- | --- | --- |
| 40 | VPLAYLR (peptide) |  |
| 37 | LISPTAR (peptide) |  |
| 40 | VVPLKWI (peptide) |  |
| 46 | HLDSRRH (peptide) |  |
| 41 | WPRPIQI (peptide) |  |
| 45 | HPFPRFD (peptide) |  |
| 41 | LPNANNL (peptide) |  |
| 39 | FSPRDVS (peptide) |  |
| 38 | YSSLTSN (peptide) |  |
| 41 | WTSVATA (peptide) |  |
| 37 | FMSDVDH (peptide) |  |
| 39 | HHPLFID (peptide) |  |
| 46 | LVLSNPR (peptide) |  |
| 40 | GLWRHTM (peptide) |  |
| 42 | FEHMAVT (peptide) |  |
| 38 | NPISPRN (peptide) |  |
| 50 | QIAHLEY (peptide) |  |
| 38 | LWAKRDA (peptide) |  |
| 41 | MIHTRQT (peptide) |  |
| 37 | YGQSITE (peptide) |  |
| 45 | STHEWRT (peptide) |  |
| 40 | SPNTNSH (peptide) |  |
| 37 | KQPAMEN (peptide) |  |

Further lines, the substance ahead of its results:

| Substance | Count (Human MPZ (human)) | other results |
| --- | --- | --- |
| LHITPEV (Nidogen-2-binding peptide) |  | Count (Human Nidogen-2): 6 |
| NPNWRTI (peptide) |  | Count (Human Myelin PLP (human) [1]): 34; Count (Human Myelin PLP (human) [2]): 34 |
| HSRLPTP (Nidogen-2-binding peptide) |  | Count (Human Nidogen-2): 13 |
| ATLKPYR (peptide) |  | Count (Human Myelin PLP (human) [1]): 68; Count (Human Myelin PLP (human) [2]): 68 |
| LALYARM (peptide) |  | Count (Human Myelin PLP (human) [1]): 44; Count (Human Myelin PLP (human) [2]): 44 |
| CSSSAPRIC (Nidogen-2-binding peptide) |  | Count (Human Nidogen-2): 9 |
| TNPWKPH (peptide) |  | Count (Human Myelin PLP (human) [1]): 62; Count (Human Myelin PLP (human) [2]): 62 |
| LVLQTTP (peptide) | 37 |  |
| YNHTMMY (Nidogen-2-binding peptide) |  | Count (Human Nidogen-2): 7 |
| TIASLLV (Nidogen-2-binding peptide) |  | Count (Human Nidogen-2): 6 |
| LSIRGLT (Nidogen-2-binding peptide) |  | Count (Human Nidogen-2): 6 |
| EAMMHRN (Nidogen-2-binding peptide) |  | Count (Human Nidogen-2): 6 |
| WLAAGSQ (Nidogen-2-binding peptide) |  | Count (Human Nidogen-2): 6 |
| YTPMGTG (peptide) |  | Count (Human Myelin PLP (human) [1]): 50; Count (Human Myelin PLP (human) [2]): 50 |
| HQGSRTY (peptide) |  | Count (Human Myelin PLP (human) [1]): 53; Count (Human Myelin PLP (human) [2]): 53 |
| DTSRTME (peptide) |  | Count (Human Myelin PLP (human) [1]): 33; Count (Human Myelin PLP (human) [2]): 33 |
| ALYLPGR (Nidogen-2-binding peptide) |  | Count (Human Nidogen-2): 7 |
| LPAESHW (peptide) | 45 |  |
| CVDKMASVC (Nidogen-2-binding peptide) |  | Count (Human Nidogen-2): 6 |
| CNLATSLQC (Nidogen-2-binding peptide) |  | Count (Human Nidogen-2): 6 |
| QMDAKHM (Nidogen-2-binding peptide) |  | Count (Human Nidogen-2): 6 |

| Substance | Count (Human MPZ (human)) | other results |
| --- | --- | --- |
| NILSQVN (Nidogen-2-binding peptide) |  | Count (Human Nidogen-2): 6 |
| NASVPPK (peptide) | 42 |  |
| CKDGHIRHC (Nidogen-2-binding peptide) |  | Count (Human Nidogen-2): 6 |
| LTHHFAP (peptide) |  | Count (Human Myelin PLP (human) [1]): 40; Count (Human Myelin PLP (human) [2]): 40 |
| ARMAFSL (Nidogen-2-binding peptide) |  | Count (Human Nidogen-2): 7 |
| RFELPAP (peptide) |  | Count (Human Myelin PLP (human) [1]): 52; Count (Human Myelin PLP (human) [2]): 52 |
| VHTPYRS (peptide) | 41 |  |
| NTASMTT (peptide) | 38 |  |
| FALPAGL (peptide) | 41 |  |
| HNQLLYT (peptide) | 38 |  |
| FRVTQTA (peptide) | 41 |  |
| FPVVTRN (peptide) |  | Count (Human Myelin PLP (human) [1]): 42 |
| FKMPIPT (peptide) |  | Count (Human Myelin PLP (human) [1]): 34; Count (Human Myelin PLP (human) [2]): 34 |
| YMKHSPG (peptide) | 45 |  |
| TLLHYSA (peptide) | 40 |  |
| RHNVEFS (peptide) |  | Count (Human Myelin PLP (human) [1]): 42; Count (Human Myelin PLP (human) [2]): 42 |
| CIHHKGVLC (Nidogen-2-binding peptide) |  | Count (Human Nidogen-2): 6 |
| ISSVTVV (peptide) | 37 |  |
| MTPHTSC (peptide) |  | Count (Human Myelin PLP (human) [1]): 62 |
| ATYNMSQ (Nidogen-2-binding peptide) |  | Count (Human Nidogen-2): 7 |
| MYHDSVS (peptide) | 47 |  |

| Substance | Count (Human MPZ (human)) | other results |
| --- | --- | --- |
| SMWSQFR (peptide) |  | Count (Human Myelin PLP (human) [1]): 34; Count (Human Myelin PLP (human) [2]): 34 |
| CSFKMNQKC (Nidogen-2-binding peptide) |  | Count (Human Nidogen-2): 8 |
| SNALSYF (peptide) | 41 |  |
| NPSHHPR (peptide) |  | Count (Human Myelin PLP (human) [1]): 37; Count (Human Myelin PLP (human) [2]): 37 |
| EKPSWTR (peptide) |  | Count (Human Myelin PLP (human) [1]): 33; Count (Human Myelin PLP (human) [2]): 33 |
| TPWLPTI (Nidogen-2-binding peptide) |  | Count (Human Nidogen-2): 7 |
| LRFQIPP (peptide) |  | Count (Human Myelin PLP (human) [1]): 44; Count (Human Myelin PLP (human) [2]): 44 |
| KLPTLSV (peptide) | 44 |  |
| GPFLFTV (peptide) |  | Count (Human Myelin PLP (human) [1]): 47 |
| AMSNLSY (peptide) | 45 |  |
| QTLRPKQ (Nidogen-2-binding peptide) |  | Count (Human Nidogen-2): 6 |
| CRSPHEPMC (Nidogen-2-binding peptide) |  | Count (Human Nidogen-2): 6 |
| CYSAPTKSC (Nidogen-2-binding peptide) |  | Count (Human Nidogen-2): 6 |
| LVHPFHG (Nidogen-2-binding peptide) |  | Count (Human Nidogen-2): 8 |
| GLIRHYT (peptide) |  | Count (Human Myelin PLP (human) [1]): 66; Count (Human Myelin PLP (human) [2]): 66 |
| IEQVGWR (peptide) | 38 |  |
| ALPISYL (peptide) | 42 |  |
| YPQARTS (peptide) | 46 |  |
| YPKLWTY (peptide) |  | Count (Human Myelin PLP (human) [1]): 35; Count (Human Myelin PLP (human) [2]): 35 |
| QLLESRT (Nidogen-2-binding peptide) |  | Count (Human Nidogen-2): 6 |
| GLRTMEP (Nidogen-2-binding peptide) |  | Count (Human Nidogen-2): 7 |
